Assays:
[1] = target: human FcγRI (CD64) extracellular domain (human) (UniProt P12314); assay: SPR (Biacore T100), antibody captured on Protein A, FcγR ECD as analyte, 25 C
[2] = target: human FcγRIIA_131H (CD32a) extracellular domain (human) (UniProt P12318); assay: SPR (Biacore T100), antibody captured on Protein A, FcγR ECD as analyte, steady state, 25 C
[3] = target: human FcγRIIA_131R (CD32a) extracellular domain (human) (UniProt P12318); assay: as above
[4] = target: human FcγRIIIA_F158 (CD16a) extracellular domain (human) (UniProt P08637); assay: as above
human FcγRIIIA_F158 (CD16a) extracellular domain (human), sequence (P08637 17-208): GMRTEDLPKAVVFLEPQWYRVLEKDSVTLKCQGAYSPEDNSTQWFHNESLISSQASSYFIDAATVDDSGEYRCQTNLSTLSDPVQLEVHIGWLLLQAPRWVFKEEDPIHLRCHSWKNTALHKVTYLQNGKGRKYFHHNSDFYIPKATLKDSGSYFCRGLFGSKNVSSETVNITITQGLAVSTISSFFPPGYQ

[5] = target: human FcγRIIb (CD32b) extracellular domain (human) (UniProt P31994); assay: as above
human FcγRIIb (CD32b) extracellular domain (human), sequence (P31994 43-217): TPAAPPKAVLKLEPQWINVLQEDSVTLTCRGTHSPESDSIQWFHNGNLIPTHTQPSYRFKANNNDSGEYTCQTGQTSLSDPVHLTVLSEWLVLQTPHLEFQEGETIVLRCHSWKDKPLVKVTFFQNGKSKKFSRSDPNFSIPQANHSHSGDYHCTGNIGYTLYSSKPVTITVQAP

human FcγRI (CD64) extracellular domain (human), sequence (P12314 16-292): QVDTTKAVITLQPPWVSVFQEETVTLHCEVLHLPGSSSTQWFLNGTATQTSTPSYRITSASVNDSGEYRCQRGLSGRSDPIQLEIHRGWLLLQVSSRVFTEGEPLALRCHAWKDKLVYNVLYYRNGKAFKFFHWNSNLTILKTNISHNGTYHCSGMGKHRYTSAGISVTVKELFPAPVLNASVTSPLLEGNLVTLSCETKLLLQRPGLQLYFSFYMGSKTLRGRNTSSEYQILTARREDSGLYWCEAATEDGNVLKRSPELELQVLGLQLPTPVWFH
human FcγRIIA_131R (CD32a) extracellular domain (human), sequence (P12318 34-217 H167R): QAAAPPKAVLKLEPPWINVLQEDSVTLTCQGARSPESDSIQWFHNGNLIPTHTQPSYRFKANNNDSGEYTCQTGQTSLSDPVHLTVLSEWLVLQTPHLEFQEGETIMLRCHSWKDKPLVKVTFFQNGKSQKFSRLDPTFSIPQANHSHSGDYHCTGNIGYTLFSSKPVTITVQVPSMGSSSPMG
human FcγRIIA_131H (CD32a) extracellular domain (human), sequence (P12318 34-217): as the sequence (P12318 34-217 H167R) above, with R134H counted along it

In the case of Human WT IgG1 Fc (antibody), the Kd [1] is reported as 0.0426 nM, the Kd [2] is reported as 500 nM and the Kd [3] is reported as 500 nM. It also gave a Kd [4] of 900 nM and a Kd [5] of 1900 nM.

From patent US20230111363A1
